These results are taken from publication PMC8216288.

The target of series [1] is GST-pICln S193, 195, 197D (phospho-mimicking aspartate mutant) (human) (UniProt P54105). The series can be described thus: SPR; Biacore T200; GST-pICln immobilised by amine coupling on CM5 chip (400 RU), SmG as analyte; multi-cycle, 20°C, 10 μl/min; 300 mM NaCl, 50 mM Tris/HCl pH 7.5, 1 mM EDTA, 1 mM EGTA; steady-state fit; n = 3.
For series [2], the system named is Sm core (heptameric ring SmB/D1/D2/D3/E/F/G) assembled from GFP-pICln immunoprecipitate, detected by Y12 supershift. The series can be described thus: EMSA with Y12 supershift. Conditions: S100 assembly: 50 ug extract, 2 ug tRNA, 5 mM ATP, 1 ul RNAsin in 20 ul PBS, 35 C, 45 min, native RNA gel, pH not stated, GFP-pICln IP with or without ATP and …. In general terms: A gel shift assay detects complexes by their altered migration in electrophoresis.

The Kd is the equilibrium constant for the complex coming apart. Low values mean tighter binding, high ones weaker binding.

Chain of GST-pICln S193, 195, 197D (phospho-mimicking aspartate mutant) (human) (P54105 other isoform, or with tags, fused parts or gaps mutant): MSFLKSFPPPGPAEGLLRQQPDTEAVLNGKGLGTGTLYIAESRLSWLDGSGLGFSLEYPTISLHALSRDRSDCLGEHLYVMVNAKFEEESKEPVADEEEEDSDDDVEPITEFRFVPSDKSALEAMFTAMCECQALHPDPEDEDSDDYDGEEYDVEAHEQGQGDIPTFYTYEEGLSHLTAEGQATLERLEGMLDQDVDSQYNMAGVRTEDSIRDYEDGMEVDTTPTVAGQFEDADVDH

“SmG purified from E. coli (SPR analyte) (from UniProt P62308 1-76) (natural protein)” registered a Kd in series [1] of 84.7 µM.
U1 snRNA: the binding signal (fold vs IP alone) in series [2] (+ATP + ULK2, stated as no effect) was 1.3; in series [2] (+ATP + active ULK1), 2.6; in series [2] (+ATP), 1.4. The binding signal (fold (reference)) in series [2] turned out to be 1.
